Laboratory results as given in the supplement of paper PMC9112550, “Optimization of the antimicrobial peptide Bac7 by deep mutational scanning” (BMC Biology, 2022).

Test system: Escherichia coli TOP10
Test: shrunken log2 fold change of peptide-encoding DNA abundance (4.5 h post-induction vs induction); higher = less antimicrobial activity (less host growth inhibition)
Conditions: time post-induction: 4.5 h; library: site-saturation at positions 5, 18, 19, 20
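Note: peptides expressed intracellularly from a pBAD plasmid library in pooled LB shake-flask culture, induced with 0.3% L-arabinose, DNA abundance read by NGS, three biological replicates, DESeq2 with apeglm shrinkage.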

| Sequence | shrunken log2 fold change |
| --- | --- |
| RRIRHRPPRLPRPRPRPAYKPRP | -0.102 |
| RRIRSRPPRLPRPRPRPSWQPRP | -0.227 |
| RRIRRRPPRLPRPRPRPHGHPRP | 0.224 |
| RRIRWRPPRLPRPRPRPATHPRP | 0.0538 |
| RRIRFRPPRLPRPRPRPNNSPRP | -0.685 |
| RRIRARPPRLPRPRPRPFWFPRP | 0.0903 |
| RRIRERPPRLPRPRPRPHMGPRP | -0.00822 |
| RRIRQRPPRLPRPRPRPTKRPRP | 0.254 |
| RRIRMRPPRLPRPRPRPHKRPRP | 0.126 |
| RRIRDRPPRLPRPRPRPENKPRP | 0.0324 |
| RRIRCRPPRLPRPRPRPQAQPRP | 0.315 |
| RRIRSRPPRLPRPRPRPTIGPRP | 0.0365 |
| RRIRSRPPRLPRPRPRPVDCPRP | -0.12 |
| RRIRARPPRLPRPRPRPVFAPRP | 0.561 |
| RRIRYRPPRLPRPRPRPLKAPRP | 0.141 |
| RRIRTRPPRLPRPRPRPTPEPRP | 0.08 |
| RRIRERPPRLPRPRPRPARIPRP | -0.246 |
| RRIRGRPPRLPRPRPRPCRRPRP | 0.117 |
| RRIRLRPPRLPRPRPRPGKMPRP | -0.0508 |
| RRIRERPPRLPRPRPRPMRWPRP | 0.472 |
| RRIRIRPPRLPRPRPRPFWGPRP | -0.139 |
| RRIRHRPPRLPRPRPRPHHAPRP | -0.0366 |
| RRIRMRPPRLPRPRPRPYGHPRP | -0.0791 |
| RRIRRRPPRLPRPRPRPYLDPRP | -0.546 |
| RRIRIRPPRLPRPRPRPRCWPRP | 0.138 |

| Sequence | shrunken log2 fold change |
| --- | --- |
| RRIRERPPRLPRPRPRPQAWPRP | 0.0278 |
| RRIRWRPPRLPRPRPRPVNYPRP | -0.122 |
| RRIRLRPPRLPRPRPRPRRWPRP | 0.497 |
| RRIRVRPPRLPRPRPRPERLPRP | -0.0657 |
| RRIRTRPPRLPRPRPRPHPSPRP | 0.00449 |
| RRIRERPPRLPRPRPRPWCWPRP | 0.315 |
| RRIRRRPPRLPRPRPRPMWGPRP | 0.0327 |
| RRIRGRPPRLPRPRPRPNPFPRP | 0.189 |
| RRIRIRPPRLPRPRPRPKRPPRP | 0.449 |
| RRIRYRPPRLPRPRPRPSSQPRP | -0.261 |
| RRIRKRPPRLPRPRPRPLEVPRP | 0.0569 |
| RRIRCRPPRLPRPRPRPHDPPRP | 0.286 |
| RRIRLRPPRLPRPRPRPPMAPRP | 0.0265 |
| RRIRFRPPRLPRPRPRPVVYPRP | -0.127 |
| RRIRIRPPRLPRPRPRPFHWPRP | 0.0373 |
| RRIRKRPPRLPRPRPRPNVNPRP | -0.0135 |
| RRIRWRPPRLPRPRPRPNIDPRP | -0.21 |
| RRIRRRPPRLPRPRPRPMHTPRP | 0.322 |
| RRIRVRPPRLPRPRPRPTSCPRP | 0.961 |
| RRIRKRPPRLPRPRPRPKERPRP | -0.0188 |
| RRIRIRPPRLPRPRPRPAGRPRP | 0.132 |
| RRIRHRPPRLPRPRPRPSTRPRP | 0.0896 |
| RRIRLRPPRLPRPRPRPWIKPRP | -0.187 |
| RRIRHRPPRLPRPRPRPFSLPRP | -0.277 |
| RRIRVRPPRLPRPRPRPHCFPRP | -0.147 |

| Sequence | shrunken log2 fold change |
| --- | --- |
| RRIRMRPPRLPRPRPRPYLLPRP | -0.204 |
| RRIRTRPPRLPRPRPRPQVCPRP | 0.0443 |
| RRIRGRPPRLPRPRPRPNWRPRP | 0.595 |
| RRIRERPPRLPRPRPRPVAFPRP | -0.0756 |
| RRIRYRPPRLPRPRPRPVENPRP | -0.0898 |
| RRIRIRPPRLPRPRPRPGPCPRP | 0.255 |
| RRIRTRPPRLPRPRPRPCQIPRP | 0.0623 |
| RRIRMRPPRLPRPRPRPDMYPRP | -0.138 |
| RRIRNRPPRLPRPRPRPPVDPRP | 0.36 |
| RRIRFRPPRLPRPRPRPQPQPRP | 0.301 |
| RRIRRRPPRLPRPRPRPSRAPRP | 0.369 |
| RRIRDRPPRLPRPRPRPIQAPRP | 0.119 |
| RRIRPRPPRLPRPRPRPQPSPRP | 0.641 |
| RRIRIRPPRLPRPRPRPARDPRP | -0.169 |
| RRIRHRPPRLPRPRPRPEGKPRP | 0.082 |
| RRIRLRPPRLPRPRPRPIGRPRP | 0.0169 |
| RRIRRRPPRLPRPRPRPYSQPRP | -0.032 |
| RRIRCRPPRLPRPRPRPWWFPRP | 0.0459 |
| RRIRMRPPRLPRPRPRPEQGPRP | 0.493 |
| RRIRNRPPRLPRPRPRPPAHPRP | 0.626 |
| RRIRLRPPRLPRPRPRPNNGPRP | 0.0736 |
| RRIRNRPPRLPRPRPRPCNMPRP | -0.0735 |
| RRIRIRPPRLPRPRPRPGQHPRP | -0.0183 |
| RRIRIRPPRLPRPRPRPLNYPRP | -0.384 |
| RRIRQRPPRLPRPRPRPGVDPRP | 0.244 |

| Sequence | shrunken log2 fold change |
| --- | --- |
| RRIRVRPPRLPRPRPRPRLFPRP | 0.447 |
| RRIRGRPPRLPRPRPRPTPGPRP | 0.971 |
| RRIRLRPPRLPRPRPRPCSKPRP | -0.0788 |
| RRIRHRPPRLPRPRPRPAMMPRP | -0.114 |
| RRIRHRPPRLPRPRPRPQKDPRP | 0.0122 |
| RRIRTRPPRLPRPRPRPWTSPRP | 0.0106 |
| RRIRVRPPRLPRPRPRPTAGPRP | -0.0283 |
| RRIRDRPPRLPRPRPRPRKQPRP | -0.0319 |
| RRIRWRPPRLPRPRPRPYTFPRP | 0.0563 |
| RRIRNRPPRLPRPRPRPSTDPRP | -0.0474 |
| RRIRGRPPRLPRPRPRPMVVPRP | 0.434 |
| RRIRNRPPRLPRPRPRPSMNPRP | -0.578 |
| RRIRGRPPRLPRPRPRPFGKPRP | -0.144 |
| RRIRSRPPRLPRPRPRPFHHPRP | -0.804 |
| RRIRDRPPRLPRPRPRPEESPRP | 0.14 |
| RRIRQRPPRLPRPRPRPTAQPRP | 0.0588 |
| RRIRHRPPRLPRPRPRPRSQPRP | 0.136 |
| RRIRARPPRLPRPRPRPIVSPRP | 0.0293 |
| RRIRMRPPRLPRPRPRPKLTPRP | 1.14 |
| RRIRLRPPRLPRPRPRPPCDPRP | -0.29 |
| RRIRYRPPRLPRPRPRPLWRPRP | 0.0545 |
| RRIRIRPPRLPRPRPRPPCSPRP | -0.339 |
| RRIRERPPRLPRPRPRPIYHPRP | -0.626 |
| RRIRQRPPRLPRPRPRPQTPPRP | 0.0705 |
| RRIRMRPPRLPRPRPRPGIGPRP | 0.638 |

| Sequence | shrunken log2 fold change |
| --- | --- |
| RRIRCRPPRLPRPRPRPCVFPRP | -0.0388 |
| RRIRNRPPRLPRPRPRPKMVPRP | -0.13 |
| RRIRLRPPRLPRPRPRPFHYPRP | -0.211 |
| RRIRTRPPRLPRPRPRPKHRPRP | -0.191 |
| RRIRHRPPRLPRPRPRPSNRPRP | -0.771 |
| RRIRCRPPRLPRPRPRPCSRPRP | -0.0999 |
| RRIRLRPPRLPRPRPRPYRSPRP | -0.0017 |
| RRIRERPPRLPRPRPRPQYQPRP | -1.12 |
| RRIRVRPPRLPRPRPRPVESPRP | -0.0208 |
| RRIRMRPPRLPRPRPRPGYDPRP | 0.0865 |
| RRIRYRPPRLPRPRPRPAKHPRP | -0.912 |
| RRIRCRPPRLPRPRPRPCPFPRP | -0.332 |
| RRIRARPPRLPRPRPRPWLNPRP | -0.175 |
| RRIRRRPPRLPRPRPRPKSDPRP | 0.441 |
| RRIRTRPPRLPRPRPRPLVCPRP | 0.0682 |
| RRIRQRPPRLPRPRPRPRGTPRP | 0.313 |
| RRIRKRPPRLPRPRPRPFVQPRP | 0.034 |
| RRIRQRPPRLPRPRPRPEPDPRP | 0.271 |
| RRIRKRPPRLPRPRPRPCMWPRP | -0.189 |
| RRIRIRPPRLPRPRPRPPIWPRP | -0.00949 |
| RRIRYRPPRLPRPRPRPPMEPRP | 0.0358 |
| RRIRTRPPRLPRPRPRPEGIPRP | 0.0215 |
| RRIRMRPPRLPRPRPRPRNTPRP | 0.354 |
| RRIRQRPPRLPRPRPRPELSPRP | -0.00478 |
| RRIRLRPPRLPRPRPRPGVNPRP | 0.0348 |

| Sequence | shrunken log2 fold change |
| --- | --- |
| RRIRARPPRLPRPRPRPGHFPRP | 0.0329 |
| RRIRGRPPRLPRPRPRPYEPPRP | 0.0834 |
| RRIRSRPPRLPRPRPRPNHSPRP | -0.736 |
| RRIRPRPPRLPRPRPRPHQFPRP | -0.0896 |
| RRIRERPPRLPRPRPRPPALPRP | 0.114 |
| RRIRTRPPRLPRPRPRPISNPRP | -0.576 |
| RRIRIRPPRLPRPRPRPGSLPRP | -0.475 |
| RRIRQRPPRLPRPRPRPANFPRP | 0.0982 |
| RRIRFRPPRLPRPRPRPGLDPRP | -0.0186 |
| RRIRGRPPRLPRPRPRPINVPRP | -0.248 |
| RRIRDRPPRLPRPRPRPYEHPRP | 0.077 |
| RRIRGRPPRLPRPRPRPYRMPRP | -0.245 |
| RRIRGRPPRLPRPRPRPEFPPRP | 0.482 |
| RRIRSRPPRLPRPRPRPMFRPRP | -0.338 |
| RRIRERPPRLPRPRPRPSALPRP | -0.373 |
| RRIRPRPPRLPRPRPRPHRSPRP | 0.0256 |
| RRIRARPPRLPRPRPRPIGCPRP | 0.445 |
| RRIRYRPPRLPRPRPRPHKMPRP | -0.153 |
| RRIRVRPPRLPRPRPRPRHEPRP | 0.193 |
| RRIRARPPRLPRPRPRPEFSPRP | 1.27 |
| RRIRPRPPRLPRPRPRPDGDPRP | 0.152 |
| RRIRCRPPRLPRPRPRPYIMPRP | -1.48 |
| RRIRYRPPRLPRPRPRPRLKPRP | 3.7 |
| RRIRNRPPRLPRPRPRPWYIPRP | 0.00246 |
| RRIRERPPRLPRPRPRPSCKPRP | -0.277 |
